Measurements from patent US20130131322A1.

Target: EGFR on A431 cells (human) (UniProt P00533)
Assay: cell-based or functional assay

inhibition of EGFR phosphorylation in A431 cells: 40%
Substance: anti-EGFR antibody (clone 225: the original antibody of cetuximab, Calbiochem)
